# Laboratory results: the supplement of paper PMC9112550, “Optimization of the antimicrobial peptide Bac7 by deep mutational scanning” (BMC Biology, 2022)
# Test system: Escherichia coli TOP10
# Experiment: shrunken log2 fold change of peptide-encoding DNA abundance (4.5 h post-induction vs induction); higher = less antimicrobial activity (less host growth inhibition)
# Details: time post-induction: 4.5 h; library: site-saturation at positions 5, 18, 19, 20
# 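Also: peptides expressed intracellularly from a pBAD plasmid library in pooled LB shake-flask culture, induced with 0.3% L-arabinose, DNA abundance read by NGS, three biological replicates, DESeq2 with apeglm shrinkage.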
row,Sequence,shrunken log2 fold change
1,RRIRERPPRLPRPRPRPNFMPRP,-0.178
2,RRIRNRPPRLPRPRPRPACGPRP,0.547
3,RRIRMRPPRLPRPRPRPELMPRP,3.86
4,RRIRFRPPRLPRPRPRPPYCPRP,-0.448
5,RRIRVRPPRLPRPRPRPNGTPRP,-0.356
6,RRIRMRPPRLPRPRPRPANKPRP,0.178
7,RRIRSRPPRLPRPRPRPYHHPRP,-0.511
8,RRIRTRPPRLPRPRPRPDWNPRP,-0.39
9,RRIRIRPPRLPRPRPRPRIEPRP,-0.246
10,RRIRPRPPRLPRPRPRPCNSPRP,-0.276
11,RRIRFRPPRLPRPRPRPANDPRP,0.0325
12,RRIRFRPPRLPRPRPRPIRAPRP,-0.0742
13,RRIRQRPPRLPRPRPRPIHPPRP,-0.0838
14,RRIRPRPPRLPRPRPRPPLGPRP,0.585
15,RRIRGRPPRLPRPRPRPIPAPRP,0.913
16,RRIRLRPPRLPRPRPRPESNPRP,0.0589
17,RRIRLRPPRLPRPRPRPHLKPRP,-0.564
18,RRIRARPPRLPRPRPRPAPLPRP,0.367
19,RRIRWRPPRLPRPRPRPAIEPRP,-0.04
20,RRIRQRPPRLPRPRPRPDYRPRP,-0.00448
21,RRIRWRPPRLPRPRPRPGNLPRP,-0.00261
22,RRIRKRPPRLPRPRPRPTPCPRP,0.692
23,RRIRNRPPRLPRPRPRPSKYPRP,-0.532
24,RRIRTRPPRLPRPRPRPENVPRP,-0.0181
25,RRIRTRPPRLPRPRPRPSYLPRP,-0.416

row,Sequence,shrunken log2 fold change
1,RRIRLRPPRLPRPRPRPEDPPRP,0.0223
2,RRIRSRPPRLPRPRPRPLTIPRP,-0.201
3,RRIRARPPRLPRPRPRPEDHPRP,0.392
4,RRIRERPPRLPRPRPRPKQAPRP,0.156
5,RRIRRRPPRLPRPRPRPNLKPRP,-0.0818
6,RRIRNRPPRLPRPRPRPLQYPRP,-0.0315
7,RRIRARPPRLPRPRPRPIAKPRP,0.217
8,RRIRNRPPRLPRPRPRPTSYPRP,0.00322
9,RRIRKRPPRLPRPRPRPRDGPRP,0.822
10,RRIRQRPPRLPRPRPRPNDQPRP,-0.00615
11,RRIRCRPPRLPRPRPRPYETPRP,0.023
12,RRIRERPPRLPRPRPRPANEPRP,-0.916
13,RRIRGRPPRLPRPRPRPHTKPRP,0.104
14,RRIRQRPPRLPRPRPRPEAEPRP,0.302
15,RRIRCRPPRLPRPRPRPIEVPRP,-0.0598
16,RRIRSRPPRLPRPRPRPEKCPRP,-0.0875
17,RRIRLRPPRLPRPRPRPDHEPRP,0.0172
18,RRIRHRPPRLPRPRPRPEAPPRP,0.641
19,RRIRIRPPRLPRPRPRPPNAPRP,-0.0573
20,RRIRRRPPRLPRPRPRPFYNPRP,-0.139
21,RRIRYRPPRLPRPRPRPQDYPRP,-0.236
22,RRIRYRPPRLPRPRPRPIRIPRP,-0.144
23,RRIRPRPPRLPRPRPRPLMRPRP,0.761
24,RRIRPRPPRLPRPRPRPVNYPRP,-0.335
25,RRIRIRPPRLPRPRPRPREPPRP,0.183

row,Sequence,shrunken log2 fold change
1,RRIRFRPPRLPRPRPRPQPHPRP,0.166
2,RRIRKRPPRLPRPRPRPFMYPRP,-0.401
3,RRIRSRPPRLPRPRPRPRISPRP,0.0353
4,RRIRERPPRLPRPRPRPMVVPRP,-0.261
5,RRIRNRPPRLPRPRPRPFRCPRP,-0.0563
6,RRIRYRPPRLPRPRPRPFNYPRP,0.0209
7,RRIRVRPPRLPRPRPRPTDMPRP,-0.234
8,RRIRVRPPRLPRPRPRPEQAPRP,0.358
9,RRIRFRPPRLPRPRPRPWCPPRP,-0.155
10,RRIRQRPPRLPRPRPRPEKTPRP,-0.0176
11,RRIRQRPPRLPRPRPRPRDAPRP,0.494
12,RRIRHRPPRLPRPRPRPYCRPRP,-0.0455
13,RRIRQRPPRLPRPRPRPGLNPRP,-0.129
14,RRIRYRPPRLPRPRPRPQEDPRP,-0.135
15,RRIRPRPPRLPRPRPRPTTNPRP,0.199
16,RRIRARPPRLPRPRPRPCDKPRP,-0.152
17,RRIRDRPPRLPRPRPRPPPAPRP,0.924
18,RRIRARPPRLPRPRPRPVRHPRP,0.399
19,RRIRGRPPRLPRPRPRPTSLPRP,0.542
20,RRIRSRPPRLPRPRPRPRKRPRP,0.213
21,RRIRPRPPRLPRPRPRPWMQPRP,0.0452
22,RRIRFRPPRLPRPRPRPALKPRP,-0.0754
23,RRIRCRPPRLPRPRPRPFRSPRP,-0.142
24,RRIRQRPPRLPRPRPRPFPWPRP,-0.0901
25,RRIRYRPPRLPRPRPRPQYDPRP,-0.0291
